Measured values published in article PMC10396304.
Values belong to the substance of their own block, whether it stands above or below them.

Experiments:
[1] = target: AoLadC, LOV-activated diguanylate cyclase from Aquella oligotrophica (Aquella oligotrophica); assay: SEC-MALS; Superdex 200 Increase 10/300 GL in storage buffer, 500-1000 ug protein, dark-adapted state (non-actinic light); miniDAWN MALS detector
[2] = target: AoLadC, LOV-activated diguanylate cyclase from Aquella oligotrophica (Aquella oligotrophica); assay: SEC-MALS; Superdex 200 Increase 10/300 GL in storage buffer, 500-1000 ug protein, illuminated state (blue light 465 nm for 1 min before loading and during the whole run); miniDAWN MALS detector
[3] = target: DpLadC, LOV-activated diguanylate cyclase from Deinococcus peraridilitoris DSM 19664 (Deinococcus peraridilitoris DSM 19664); assay: SEC-MALS; Superdex 200 Increase 10/300 GL in storage buffer, 500-1000 ug protein, dark-adapted state (non-actinic light); miniDAWN MALS detector
[4] = target: DpLadC, LOV-activated diguanylate cyclase from Deinococcus peraridilitoris DSM 19664 (Deinococcus peraridilitoris DSM 19664); assay: SEC-MALS; Superdex 200 Increase 10/300 GL in storage buffer, 500-1000 ug protein, illuminated state (blue light 465 nm for 1 min before loading and during the whole run); miniDAWN MALS detector
[5] = target: MsLadC, LOV-activated diguanylate cyclase from Methylotenera sp. (Methylotenera sp.); assay: SAXS; steady-state light-adapted sample (blue light 465 nm), BM29 ESRF, 20°C in the capillary, MsLadC 0.8 mg/ml, NT-AoLadC 0.9 mg/ml; molecular weight from Porod volume and volume of correlation
[6] = target: MsLadC, LOV-activated diguanylate cyclase from Methylotenera sp. (Methylotenera sp.); assay: SEC-MALS; Superdex 200 Increase 10/300 GL in storage buffer, 500-1000 ug protein, dark-adapted state (non-actinic light); miniDAWN MALS detector
[7] = target: MsLadC, LOV-activated diguanylate cyclase from Methylotenera sp. (Methylotenera sp.); assay: SEC-MALS; Superdex 200 Increase 10/300 GL in storage buffer, 500-1000 ug protein, illuminated state (blue light 465 nm for 1 min before loading and during the whole run); miniDAWN MALS detector
[8] = target: MsLadC, LOV-activated diguanylate cyclase from Methylotenera sp. (Methylotenera sp.); assay: SAXS; steady-state dark-adapted sample, BM29 ESRF, 20°C in the capillary, MsLadC 0.8 mg/ml, NT-AoLadC 0.9 mg/ml; molecular weight from Porod volume and volume of correlation
[9] = target: SfLadC, LOV-activated diguanylate cyclase from Serratia fonticola AU-AP2C (Serratia fonticola AU-AP2C); assay: SEC-MALS; Superdex 200 Increase 10/300 GL in storage buffer, 500-1000 ug protein, dark-adapted state (non-actinic light); miniDAWN MALS detector
[10] = target: SfLadC, LOV-activated diguanylate cyclase from Serratia fonticola AU-AP2C (Serratia fonticola AU-AP2C); assay: SEC-MALS; Superdex 200 Increase 10/300 GL in storage buffer, 500-1000 ug protein, illuminated state (blue light 465 nm for 1 min before loading and during the whole run); miniDAWN MALS detector

stoichiometry N [1]: 2 | stoichiometry N [2]: 2
Substance: AoLadC, LOV-activated diguanylate cyclase from Aquella oligotrophica (enzyme)

stoichiometry N [3]: 2 | stoichiometry N [4]: 2
Substance: DpLadC, LOV-activated diguanylate cyclase from Deinococcus peraridilitoris DSM 19664 (enzyme)

stoichiometry N [5]: 2 | stoichiometry N [6]: 2 | stoichiometry N [7]: 2 | stoichiometry N [8]: 2
Substance: MsLadC, LOV-activated diguanylate cyclase from Methylotenera sp. (enzyme)

stoichiometry N [9]: 2 | stoichiometry N [10]: 2
Substance: SfLadC, LOV-activated diguanylate cyclase from Serratia fonticola AU-AP2C (enzyme)
